Data published in the DeepSol protein solubility set.

Test: soluble on expression in E. coli; label from the status in PepcDB or PDB records

Row | Sequence | soluble on expression in E. coli
1 | MSDYSAKPSGSLARIGDYDLSSDDSDQNDEDETLIASKTIQTGAVQVNDIAVAEASPAETDAKSSASPVSGPEPPTSAVVENRDLDEFKKESGSNDDKQEEINEDKDSNEETVFQQTESGSADVVDKTDVKQKDSDSSADDDHSHSKSGSVHSPQKPQGSTTPCSVQSPASPVGDEQAVKMEEVEEPIVASEEVPDKKPESVKESTDSESSGSEHGFEKMDTAEKVEDECNDDEVAASNGTEEPEPGDKAADTVNPWETPRQEPVDGVVQPRTEPPAGKPTRHTNCLDFVLFTVVKDALKHKHSWPFQLPVDAIKLEIPEYHNIVNTPMDLRTIEKRLRNLYYWCAEDAIKDLNTLFDNCKKFNDRNDDIYIMCENIEGVVQRGLEWMPSEEKPADLADHHRRGMFSASTPSGKTKGPKQRGRKSTRGRKKTSLPRGASTFKDESVDDNNDDESSKVDSINFDDDDDTATEKDAESRAESVQPEVVNEEPKPSTSQPPSKKRKAENGEPAVAVKIATPATPVAAHPQEETPRRKNPNTLIEWKHLVPRWQGKIPEWQKFCSKLLNEIHSVKNKGFAQVFYLPVDPIKLKIYDYLEVITNPMDLQTIKKKLDFKQYAEPEEFVHDINLMVDNCCKYNPKGSPAHSNALELRSFFEQRWKLFPRPGVDPIIADSYINQNLVVNTDLIEDERINSYLSAVKAEEKKCAEKLEQLRSMSEGLYTIAMQRREAKLAGNTAPALAQNQLSQLEGLGISIKSTPMMIPELISPALSVRSSSRAPVPKIIDDIGPSPIKARKISKPRASMASNVSVPYTPTGNPRGRKPKKSGRPKKNIYSPATVSERISQQPPFEVTPYVSIYGRKVVGTNDKIELSERMASIPQMYITPILRIIQIGHHNTGKTITSLRSLCEEEIDFNDVSDDLVIELLDYLEMIQKDKAKAEQVRQELEVKAKFYGFEAYDNKLGTIPKTRNMPPPLQHRMRSDSPSPSASRTGNQSSDSDSASDDSSDDEPSRSNSNVAGPRRALELSGNSSSASTPAGPSKAQPAVVRPSSKSVASKPAYTKRTLSESSSSSDSNGSSSDSSDSDSEPS | not soluble
2 | MGSDKIHHHHHHMRRFLILFVLLVAGCTGVDPNNPQYRAFVAVAEDVEPVGEAQCRSKDPERNCDFQIQLDLNPSAPANAFQTVDRSGRPVVIFTRSMLDSFRNPDEMAFVMGHEMAHHILEHLDQQRINAVKGAVFLGELVSLEGGTPEQVANAQYVGAVVGSRSYSKAFELEADALGTLITYQAGYRPSVGVKFFEEIPDPGDVFLGTHPANPDRIRIVQRTIRKYGLN | not soluble
3 | MAHHHHHHMRSFMYMCRQVQGARFIQITRSRCGRTIPYKLADIGEGIKEVEVVTLYVKPGDRIGEFEKICEVQSDKATVEITSRYAGVITTVHIEAGEKAHVGEPIVDIEVNDTDETQKPSCGTVDCNVSDQFNNGGVPVAEEGDSCAADCTTEISKDFTKVLATPAVREFARSRGVNITDVKGTGKDGRVLREDVLSYAGKSCYNDDVVVRLDTGLRKAMVSSMTKAGSVPSFTACDEVEVSQLLNFQHILRDALNSSSEGVRDGSKVSLMPLFIKAASQSLLQYPELNAHVSSECDKLFVKKAHHIGFAMDTPKGLVVPVVRDVQQKSVAELVHEVNELVTLGRKSQIPPDRMKDGTFTLSNIGPIGAIYATPMLNPPQVAIGAIGRIQQLPRFDASGNVVRANILAMSWTADHRVIDGATLVRFSNAFKRCLESPGLLIAGEVA | not soluble
4 | MDGKRVWLSDDELTRFIEQAETPHQRLAFLLAGRVGLRRSEIIEVCPQDLVDGPTGDHIRVWESYAKRDKYREPPVPQEVVTIAETLAYQQDDDEPLLDVAGSTVYRWVRRAADELEEETGDRGWQYLDVHDLRRTWGTYLLEQGVIPSVVMSFGGWEDWDTFRKHYLGLEHHHHHH | not soluble
5 | MECAEKVEAEIPGQAGRRAGKPSRTYYLEVYGCSLSEFDALIMASRLEEAGYRRVARPEDADVILVNTCAVRLDTEQRIAERLEKLRLQLPDRKYVVAGCLVKARPGLVARLVPEASLLAPQAVERVLDAVDALESGRRLVVLDGRRDTRSMPQLPITDAVVTVMIQEGCLGDCSFCITKVARRQVRSYSPRVIVERVREAVEKGAREIRLTGTDVAVYGVDLPGKPNLADLVAAILEKVEGDYRIRVGMMTPDQVEPYLDSLLDVYRDERVYKYFHLPVQSGDDEVLKIMKRNYTVSEYKAIHRRIKSRFPDAMIATDIIVGHPGETWEAFWNTVRLVEELRFEKVHLAQYSLRPHTEAASMEQVPDSVKKERSRILGKIVAEIGLEINGSYVGRRVRALVTERSWREGSMTGRLDNYTPIILPYEERAMGRWVYAEVEEATFFDLRSSKFEPAP | soluble
6 | MNHHLLSQAHLDKEKLVILVKEDEKMNSMHKDKPFFPLLIDYMSSGPVVAMLWEGCDVVKRARVILGEELEVGEFRSIFYDLVVRDTHKGCHCSDSVASANREYVLWFEEFKEGTRFD | not soluble
7 | MAGWNLEPEYTSLARDFGSLDAVFALQGQQLTRDPLSDVIRVERAGVYYFVKRYVGAGKGLRRYMGKPRVKSEWQNLKRFAKWGIPTAEVVAWGLERNGAAYDRGALITRGLPNTEDLSALAQRKDPRLADRQWVDGISRQLAAYTRIMHDNHFTHNDLKWRNLLVDNEDRLFFIDCPNGAFWWSFMLRYRITKDLACLDKVAKYHLSATQRLRFYLQYRQRARLNAADKKRIRHIVSFFEGRE | not soluble
8 | MSLIEQLIQQAQPYWQQYIEHEFVQQLAKGTLPKACFQHYLKQDYLYLFHYSRAFALGVFKAKNFAEMETPRKTLEILCQEIQLHLNYCREWGISEQEIFTTQESAACIAYTRYLLDCGMTGSLAELYAAVTPCALGYAQVARYITQHYPRLPNNPYQTWIDTYASEEFQQAAQETVDFLTALCKPLNPSQLAEIQQIFTTATRMEIAFWQMGLDLAEGGSHHHHHH | soluble
9 | MLVLPKGVRHMPAYLSRAIQDALVEDVRSIVQQAPLFVPAMPRTGKEMSVRMTNCGPLGWVTDKERGYRYQPTHPLTGEPWPPIPESLLDLWRQVSGYPNPPEACLINFYTADAKMGLHQDRDEADFSAPVVSVSLGDDCLFRVGQTTRDGATKSFRLKSGDVVVLGGEGRLAFHGVDRIYPSTSALLKNGGRINLTLRRVTKPHEECLTSRSLEHHHHHH | soluble
10 | MEHKLEDIIAIFNQCFEEEYNTRLVKGGDEPIYLPANDEVPYNAIYFARGFYSSALHEIAHWLVAGKERRKLEDFGYWYEPDGRSEERQRDFEKVEVKPQALEWILATAAGFRYFASADNLNGNPGDTQPFKQAVYEQVKIYAEKGLPKRAETLRKALVAFYSTEDDINLAKFDVTCI | not soluble
11 | MSLCAREPRVPADRLVAEMVPPPRFDSVRFGTYVPDPNQPSQSEAVRVLEDFAGGLGEAPGTGGGRRGFFGLGRGRAPKTPAGPRGVYLDGGYGVGKTHLLASLWHATPAEPSRKAFGTFVELTNLVGALGFQQTVQTLSGHRLLCIDEFELDDPGDTVLVSSLLARLVEAGVALAATSNTLPGKLGEGRFAAADFLREIQGLSAHFRALRIDGEDYRHRGLPEAPAPYSDEQVTRAARATEGASLDDFAALLDHLARVHPSRYGALTDGLTAVCLTGVHPVPDQSTALRLVVLADRLYDREVPVLASGLPFDRLFGEEMLKGGYRKKYFRAISRLTALARDAARLVDTAAAALEHHHHHH | not soluble
12 | MGSDKIHHHHHHMLTGHHAPVRAYDAHASSNSSTGFRGRLRLSVATTERQCSMIIAHLSDLHIRETGKPFASGNVDCTARAAQAFERVANMTPRPDMMVVTGDLADSGQIGEYQLLKELTEGLPFPVHLALGNHDIRENFLAVFPEKKGPGGFVQFCVEHDKLRVIGLDTLVEGEGLGRLCSERLSYLRDCLQERPNTSTLILLHHPPFAFGGGIYDAVRLIDGARELGEIITANKQVVRLLCGHHHRAIDCLWNGTLASVAPSVVSSCHLQLGDVRVFKNINEPPAFKLHVLVPESGFVSHNVFVEDFGPAYENIPDPNYQALASMRKQTALAASR | not soluble
13 | MTLDHQIINPTLKWSQPAVPSGGPLVQHAHTTLDSDAGLTENPLTKLLAIGKEDDNAQWHLSGSILDVYSGEQGISPINMGLTSASCPSSLPMKREITETDTRALAKERQKKDNHNLIERRRRYNINYRIKELGTLIPKSNDPDMRWNKGTILKASVEYIKWLQKEQQRARELEHRQKKLEQANRRLLLRIQVFIRM | not soluble
14 | MPAVTQPRGESKYDAIPGPLGPQSASLEGKVALVTGAGRGIGREMAMELGRRGCKVIVNYANSTESAEEVVAAIKKNGSDAACVKANVGVVEDIVRMFEEAVKIFGKLDIVCSNSGVVSFGHVKDVTPEEFDRVFTINTRGQFFVAREAYKHLEIGGRLILMGSITGQAKAVPKHAVYSGSKGAIETFARCMAIDMADKKITVNVVAPGGIKTDMYHAVCREYIPNGENLSNEEVDEYAAVQWSPLRRVGLPIDIARVVCFLASNDGGWVTGKVIGIDGGACM | soluble
15 | MSDHAEEHASINTKKTVENITDVRKTAKTSIDWTKPSGGEYPDIKQKHVWIDVNVKEQKAYIKEGSNTIYTMMISSGLDQTKDDATPKGTFYVEPERGEWFFSEGYQEGAEYWVSWKNHGEFLFHSVPMTKDQKVIKTEAEKLGTKVSHGCIRLTIPDAKWVYENIPEHTKVVISLEHHHHHH | not soluble
16 | MERYGYCIFCDDIRTEAGGKLSFIGCYNSAMFVTNEFPLSLPKLCVHFNVFSPADQPYKSLRVRCYLPGEDKPIAEESIEVPALQDQINLLTSLPKDQPMMPFIVVAASLIFSPCEIKSPGMIHVRAVINDSPTELHLGSLAVSSQATPQVALEHGPAAIN | not soluble
17 | MTYEIVIAGFGGQGVLSMGKILAYSGLMEDKEVSWMPSYGPEQRGGTSNVTVIVSDEQVSSPVLNEYDIVIVLNQPSLDKFEARVKKGGILVYDPDSIVLKNKRDDIQIYEVDATQESLRMGNQKAFNMIVLGGVLKVAPMVKIESVIKGLKKTLPERHHKLIPMNEQAIQRGMEIIKQIH | not soluble
18 | MIRKLDKAEFQQATTLALEVYLQCGQDDFEDEGLESFKSFIFNDKLMNELCIYGAFEENKLIGIMGTKNEGKHISLFFIKKEFHRKGIGKQLFDYSQCDCPANEITVNSSTYAIRFYESLGFEKTNDRQQTNGISYTPMKLISNKLEHHHHHH | soluble
19 | SMYKVRDISLAEWGRRELELAENEMPGLMELRREYGPSKPLKGAKIAGCLHMTMQTAVLIETLVELGAEVRWASCNIFSTQDHAAAAIAKRGIPVFAWKGETEEEYMWCMKQTLKGFSGDGYPNMLLDDGGDLTNYVLDECKELDGKIYGVSEETTTGVKNLYKRLQRGKLTIPAMNVNDSVTKSKFDNLYGCRESLVDGIKRATDVMIAGKTACVCGYGDVGKGCAAALRGFGARVVVTEVDPINALQAAMEGYQVLLVEDVVEEAHIFVTTTGNDDIITSEHFPRMRDDAIVCNIGHFDTEIQVAWLKANAKERVEVKPQVDRYTMANGRHIILLAEGRLVNLGCASGHPSFVMSNSFCNQVLAQIELWTNRDTGKYPRGAKAQVYFLPKKLDEKVAALHLGKLGAKLTKLTPKQAEYINCPVDGPFKPDHYRY | soluble
20 | MYFVDRTAVVLKPTARFLEWLKSTDENMPDLTIEQLRANCSVFLVPQFDEPEAVVSYFDERYRQIFEAELAGWDIDKDKWPQDMGLKAFWEFFDIEIHDIVLNMEEAELNITPVFDNMM | soluble
21 | GPLPVDLRGKTAFVAGVADSNGYGWAICKLLRAAGARVLVGTWPPVYSIFKKGLESSRFEQDSFYAQEPSSKVAAEAAEKPVDLVFDKIYPLDAVFDTPQDVPPEVSSNKRYAGVGGFTISEVAEAVRADVGQIDILVHSLANGPEVTKPLLQTSRKGYLAAVSSSSYSFVSLLQHFLPLMKEGGSALALSYIASEKVIPGYGGGMSSAKAALESDCRTLAFEAGRARAVRVNCISAGPLKSRAASAIGKAGDKTFIDLAIDYSEANAPLQKELESDDVGRAALFLLSPLARAVTGATLYVDNGLHAMGQALDSKSLTP | soluble
